B1: target 2 MT 5'PFS UCU 3'PFS UUA (mixed)
RNA 1: CACCCGUGCAAAAUUGCAGGGGUCUAAAACCUUCUCCAAAUUGUUUCAUCCU
RNA 2: GGGAAUGGAUCCACAUCUACGAAUUCUCUAGGAUGAAACAAUUUGGAGAAGUUAAGAUCGGAAGAGCACACGU
B2: target 2 MT 5'PFS UAU 3'PFS UUU (mixed)
RNA 1: CACCCGUGCAAAAUUGCAGGGGUCUAAAACCUUCUCCAAAUUGUUUCAUCCU
RNA 2: GGGAAUGGAUCCACAUCUACGAAUUCUAUAGGAUGAAACAAUUUGGAGAAGUUUAGAUCGGAAGAGCACACGU
B3: target 2 MT 5'PFS UCA 3'PFS CUA (mixed)
RNA 1: CACCCGUGCAAAAUUGCAGGGGUCUAAAACCUUCUCCAAAUUGUUUCAUCCU
RNA 2: GGGAAUGGAUCCACAUCUACGAAUUCUCAAGGAUGAAACAAUUUGGAGAAGCUAAGAUCGGAAGAGCACACGU
B4: target 2 MT 5'PFS CUG 3'PFS AUC (mixed)
RNA 1: CACCCGUGCAAAAUUGCAGGGGUCUAAAACCUUCUCCAAAUUGUUUCAUCCU
RNA 2: GGGAAUGGAUCCACAUCUACGAAUUCCUGAGGAUGAAACAAUUUGGAGAAGAUCAGAUCGGAAGAGCACACGU
B5: target 2 MT 5'PFS UCA 3'PFS CUC (mixed)
RNA 1: CACCCGUGCAAAAUUGCAGGGGUCUAAAACCUUCUCCAAAUUGUUUCAUCCU
RNA 2: GGGAAUGGAUCCACAUCUACGAAUUCUCAAGGAUGAAACAAUUUGGAGAAGCUCAGAUCGGAAGAGCACACGU
B6: target 2 MT 5'PFS UCA 3'PFS CUG (mixed)
RNA 1: CACCCGUGCAAAAUUGCAGGGGUCUAAAACCUUCUCCAAAUUGUUUCAUCCU
RNA 2: GGGAAUGGAUCCACAUCUACGAAUUCUCAAGGAUGAAACAAUUUGGAGAAGCUGAGAUCGGAAGAGCACACGU
B7: target 2 MT 5'PFS GCA 3'PFS UAG (mixed)
RNA 1: CACCCGUGCAAAAUUGCAGGGGUCUAAAACCUUCUCCAAAUUGUUUCAUCCU
RNA 2: GGGAAUGGAUCCACAUCUACGAAUUCGCAAGGAUGAAACAAUUUGGAGAAGUAGAGAUCGGAAGAGCACACGU
B8: target 2 MT 5'PFS AAA 3'PFS UCG (mixed)
RNA 1: CACCCGUGCAAAAUUGCAGGGGUCUAAAACCUUCUCCAAAUUGUUUCAUCCU
RNA 2: GGGAAUGGAUCCACAUCUACGAAUUCAAAAGGAUGAAACAAUUUGGAGAAGUCGAGAUCGGAAGAGCACACGU
B9: target 2 MT 5'PFS AGU 3'PFS UAC (mixed)
RNA 1: CACCCGUGCAAAAUUGCAGGGGUCUAAAACCUUCUCCAAAUUGUUUCAUCCU
RNA 2: GGGAAUGGAUCCACAUCUACGAAUUCAGUAGGAUGAAACAAUUUGGAGAAGUACAGAUCGGAAGAGCACACGU
B10: target 2 MT 5'PFS AUA 3'PFS UGU (mixed)
RNA 1: CACCCGUGCAAAAUUGCAGGGGUCUAAAACCUUCUCCAAAUUGUUUCAUCCU
RNA 2: GGGAAUGGAUCCACAUCUACGAAUUCAUAAGGAUGAAACAAUUUGGAGAAGUGUAGAUCGGAAGAGCACACGU
B11: target 2 MT 5'PFS ACC 3'PFS ACC (mixed)
RNA 1: CACCCGUGCAAAAUUGCAGGGGUCUAAAACCUUCUCCAAAUUGUUUCAUCCU
RNA 2: GGGAAUGGAUCCACAUCUACGAAUUCACCAGGAUGAAACAAUUUGGAGAAGACCAGAUCGGAAGAGCACACGU
B12: target 2 MT 5'PFS GCA 3'PFS UAA (mixed)
RNA 1: CACCCGUGCAAAAUUGCAGGGGUCUAAAACCUUCUCCAAAUUGUUUCAUCCU
RNA 2: GGGAAUGGAUCCACAUCUACGAAUUCGCAAGGAUGAAACAAUUUGGAGAAGUAAAGAUCGGAAGAGCACACGU
B13: target 2 MT 5'PFS AAA 3'PFS UCC (mixed)
RNA 1: CACCCGUGCAAAAUUGCAGGGGUCUAAAACCUUCUCCAAAUUGUUUCAUCCU
RNA 2: GGGAAUGGAUCCACAUCUACGAAUUCAAAAGGAUGAAACAAUUUGGAGAAGUCCAGAUCGGAAGAGCACACGU
B14: target 2 MT 5'PFS UAU 3'PFS UUA (mixed)
RNA 1: CACCCGUGCAAAAUUGCAGGGGUCUAAAACCUUCUCCAAAUUGUUUCAUCCU
RNA 2: GGGAAUGGAUCCACAUCUACGAAUUCUAUAGGAUGAAACAAUUUGGAGAAGUUAAGAUCGGAAGAGCACACGU
B15: target 2 MT 5'PFS ACC 3'PFS ACU (mixed)
RNA 1: CACCCGUGCAAAAUUGCAGGGGUCUAAAACCUUCUCCAAAUUGUUUCAUCCU
RNA 2: GGGAAUGGAUCCACAUCUACGAAUUCACCAGGAUGAAACAAUUUGGAGAAGACUAGAUCGGAAGAGCACACGU
B16: target 2 MT 5'PFS GGC 3'PFS CGU (mixed)
RNA 1: CACCCGUGCAAAAUUGCAGGGGUCUAAAACCUUCUCCAAAUUGUUUCAUCCU
RNA 2: GGGAAUGGAUCCACAUCUACGAAUUCGGCAGGAUGAAACAAUUUGGAGAAGCGUAGAUCGGAAGAGCACACGU
B17: target 2 MT 5'PFS ACA 3'PFS AAC (mixed)
RNA 1: CACCCGUGCAAAAUUGCAGGGGUCUAAAACCUUCUCCAAAUUGUUUCAUCCU
RNA 2: GGGAAUGGAUCCACAUCUACGAAUUCACAAGGAUGAAACAAUUUGGAGAAGAACAGAUCGGAAGAGCACACGU
B18: target 2 MT 5'PFS GCG 3'PFS CGC (mixed)
RNA 1: CACCCGUGCAAAAUUGCAGGGGUCUAAAACCUUCUCCAAAUUGUUUCAUCCU
RNA 2: GGGAAUGGAUCCACAUCUACGAAUUCGCGAGGAUGAAACAAUUUGGAGAAGCGCAGAUCGGAAGAGCACACGU
B19: target 2 MT 5'PFS UAU 3'PFS UUG (mixed)
RNA 1: CACCCGUGCAAAAUUGCAGGGGUCUAAAACCUUCUCCAAAUUGUUUCAUCCU
RNA 2: GGGAAUGGAUCCACAUCUACGAAUUCUAUAGGAUGAAACAAUUUGGAGAAGUUGAGAUCGGAAGAGCACACGU
B20: target 2 MT 5'PFS AAA 3'PFS UCU (mixed)
RNA 1: CACCCGUGCAAAAUUGCAGGGGUCUAAAACCUUCUCCAAAUUGUUUCAUCCU
RNA 2: GGGAAUGGAUCCACAUCUACGAAUUCAAAAGGAUGAAACAAUUUGGAGAAGUCUAGAUCGGAAGAGCACACGU
B21: target 2 MT 5'PFS GCA 3'PFS UAC (mixed)
RNA 1: CACCCGUGCAAAAUUGCAGGGGUCUAAAACCUUCUCCAAAUUGUUUCAUCCU
RNA 2: GGGAAUGGAUCCACAUCUACGAAUUCGCAAGGAUGAAACAAUUUGGAGAAGUACAGAUCGGAAGAGCACACGU
B22: target 2 MT 5'PFS ACC 3'PFS ACG (mixed)
RNA 1: CACCCGUGCAAAAUUGCAGGGGUCUAAAACCUUCUCCAAAUUGUUUCAUCCU
RNA 2: GGGAAUGGAUCCACAUCUACGAAUUCACCAGGAUGAAACAAUUUGGAGAAGACGAGAUCGGAAGAGCACACGU
B23: target 2 MT 5'PFS GAC 3'PFS UAU (mixed)
RNA 1: CACCCGUGCAAAAUUGCAGGGGUCUAAAACCUUCUCCAAAUUGUUUCAUCCU
RNA 2: GGGAAUGGAUCCACAUCUACGAAUUCGACAGGAUGAAACAAUUUGGAGAAGUAUAGAUCGGAAGAGCACACGU
B24: target 1 insC 3' of 15,insA 3' of 15 (mixed)
RNA 1: CACCCGUGCAAAAAUGCAGGGGUCUAAAACUGAGCGGAUAACCUCUCUAUGG
RNA 2: GGGAAUGGAUCCACAUCUACGAAUUCGUACCAUAGAGCAAGGUUAUCCGCUCACCGAGAUCGGAAGAGCACACGU
B25: target 1 insG 3' of 7,insA 3' of 3 (mixed)
RNA 1: CACCCGUGCAAAAAUGCAGGGGUCUAAAACUGAGCGGAUAACCUCUCUAUGG
RNA 2: GGGAAUGGAUCCACAUCUACGAAUUCGUACCAUAGAGAGGUUAUCGCGCUACACCGAGAUCGGAAGAGCACACGU
B26: target 1 A1U,G13A (mixed)
RNA 1: CACCCGUGCAAAAAUGCAGGGGUCUAAAACUGAGCGGAUAACCUCUCUAUGG
RNA 2: GGGAAUGGAUCCACAUCUACGAAUUCGUACCAUAGAGAAGUUAUCCGCUCUCCGAGAUCGGAAGAGCACACGU
B27: target 1 insA 3' of 13,insA 3' of 11 (mixed)
RNA 1: CACCCGUGCAAAAAUGCAGGGGUCUAAAACUGAGCGGAUAACCUCUCUAUGG
RNA 2: GGGAAUGGAUCCACAUCUACGAAUUCGUACCAUAGAGAGAGUAUAUCCGCUCACCGAGAUCGGAAGAGCACACGU

This data set deals with T1, EsCas13d, nuclease-dead (Eubacterium siraeum, UniProt B0MS50, R295A;H300A;R849A;H854A).
T1 sequence: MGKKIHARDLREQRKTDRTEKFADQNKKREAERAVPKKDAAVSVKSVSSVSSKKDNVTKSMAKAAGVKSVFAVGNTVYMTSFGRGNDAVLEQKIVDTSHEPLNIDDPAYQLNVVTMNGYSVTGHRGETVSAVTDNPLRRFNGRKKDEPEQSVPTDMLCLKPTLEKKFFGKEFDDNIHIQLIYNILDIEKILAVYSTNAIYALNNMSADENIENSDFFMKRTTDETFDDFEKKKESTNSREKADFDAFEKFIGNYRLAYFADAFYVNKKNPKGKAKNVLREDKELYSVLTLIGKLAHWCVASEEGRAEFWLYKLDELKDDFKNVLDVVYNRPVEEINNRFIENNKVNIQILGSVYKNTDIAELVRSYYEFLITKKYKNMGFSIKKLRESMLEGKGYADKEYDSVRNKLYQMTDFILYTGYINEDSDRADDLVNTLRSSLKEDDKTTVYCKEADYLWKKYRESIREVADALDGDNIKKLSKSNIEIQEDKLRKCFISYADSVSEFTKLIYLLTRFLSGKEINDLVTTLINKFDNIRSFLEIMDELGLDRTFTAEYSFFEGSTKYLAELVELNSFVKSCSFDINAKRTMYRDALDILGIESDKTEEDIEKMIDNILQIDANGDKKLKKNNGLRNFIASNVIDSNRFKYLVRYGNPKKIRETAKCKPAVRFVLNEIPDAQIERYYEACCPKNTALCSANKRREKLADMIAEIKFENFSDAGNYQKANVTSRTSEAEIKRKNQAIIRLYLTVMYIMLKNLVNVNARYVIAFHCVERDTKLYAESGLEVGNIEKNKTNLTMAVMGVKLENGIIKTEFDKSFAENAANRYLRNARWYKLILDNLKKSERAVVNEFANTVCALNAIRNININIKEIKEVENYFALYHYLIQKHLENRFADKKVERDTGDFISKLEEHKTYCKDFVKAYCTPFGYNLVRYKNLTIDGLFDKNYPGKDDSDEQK
As to the kind of experiment: crRNA (strand 1, pre-loaded); Mg2+; 40 mM Tris-HCl pH 7.5, 150 mM NaCl, 6 mM MgCl2, 1 mM DTT, 0.1% Tween-20, 0.2 mg/ml BSA; 25 C; 10 min per concentration, then washed. To be noted: tags: His6-TwinStrep-SUMO cleaved; N-terminal SNAP kept (SNAP-Surface 488); label: 3' end held by stalled T7 RNA polymerase.
Usually Kd stands for a measure of binding affinity in units of concentration. Read a high Kd as weaker binding. B1 showed a Kd of 15.6 ± 3 nM.

As for B2, the Kd came to 48 ± 11 nM.

The molecule B3 showed a dissociation constant (Kd) of 6.3 ± 1.7 nM.

B4 yielded a dissociation constant Kd of 2.3 ± 0.4 nM.

Consider B5, for which binding was characterised by a dissociation constant (Kd) of 8.7 ± 2.2 nM.

B6 displayed a Kd of 7.3 ± 1.1 nM.

With B7, the affinity, expressed as Kd, was 12.3 ± 2.1 nM.

With B8, binding was characterised by a dissociation constant (Kd) of 4.9 ± 1.1 nM.

In turn, B9 came in with a Kd of 15.1 ± 3.3 nM.

In turn, B10 registered a Kd of 13.3 ± 2 nM.

Take B11: binding was put at a Kd of 10.2 ± 3.1 nM.

Molecule B12 came in with a Kd of 6.4 ± 1.3 nM.

B13: the equilibrium dissociation constant (Kd) is 7.3 ± 1.4 nM.

B14 showed an equilibrium dissociation constant (Kd) of 33 ± 9 nM.

B15 returned a Kd of 7.1 ± 3.2 nM.

B16: binding was characterised by a dissociation constant (Kd) of 18 ± 2.4 nM.

Regarding B17, the affinity, expressed as Kd, was 4 ± 1.3 nM.

As for B18, binding was characterised by a dissociation constant (Kd) of 12 ± 0.7 nM.

B19 yielded a Kd of 23.1 ± 3.1 nM.

B20 came in with a Kd of 15 ± 5 nM.

As for B21, the dissociation constant Kd worked out at 12.3 ± 2.6 nM.

In the case of B22, the dissociation constant (Kd) is 4.3 ± 0.9 nM.

Take B23: the dissociation constant (Kd) turned out to be 10.8 ± 2.4 nM.

Take B24: binding was characterised by a dissociation constant (Kd) of 8.8 ± 0.6 nM.

With B25, binding was put at a Kd of 5.85 ± 0.29 nM.

B26 yielded a Kd of 6.4 ± 0.5 nM.

Take B27: binding was put at a Kd of 3.87 ± 0.21 nM.

(Values after article PMC10786891, “Massively parallel profiling of RNA-targeting CRISPR-Cas13d”.)
